From patent US20250326823A1

What was measured:
Assay in all cases: cell-based or functional assay
[1] = target: SARS-CoV-2 LB.1 spike (S) protein (SARS-CoV-2)
[2] = target: SARS-CoV-2 KP.3.1.1 spike (S) protein (SARS-CoV-2)
[3] = target: SARS-CoV-2 KP.3 spike (S) protein (SARS-CoV-2)
[4] = target: SARS-CoV-2 KP.2.3 spike (S) protein (SARS-CoV-2)
[5] = target: SARS-CoV-2 KP.2 spike (S) protein (SARS-CoV-2)
[6] = target: SARS-CoV-2 HK.3 spike (S) protein (SARS-CoV-2)
[7] = target: SARS-CoV-2 XBB.1.16.6 spike (S) protein (SARS-CoV-2)
[8] = target: SARS-CoV-2 FL.1.5.1 spike (S) protein (SARS-CoV-2)
[9] = target: SARS-CoV-2 B.1.617.2 spike (S) protein (SARS-CoV-2)
[10] = target: SARS-CoV-2 B.1.526 spike (S) protein (SARS-CoV-2)
[11] = target: SARS-CoV-2 JF.1 spike (S) protein (SARS-CoV-2)
[12] = target: SARS-CoV-2 B.1.1.7 spike (S) protein (SARS-CoV-2)
[13] = target: SARS-CoV-2 BA.2.86 spike (S) protein (SARS-CoV-2)
[14] = target: SARS-CoV-2 B.1.617.1 spike (S) protein (SARS-CoV-2)
[15] = target: SARS-CoV-2 P.1 spike (S) protein (SARS-CoV-2)
[16] = target: SARS-CoV-2 XBB spike (S) protein (SARS-CoV-2)
[17] = target: SARS-CoV-2 BA.4/5 spike (S) protein (SARS-CoV-2)
[18] = target: SARS-CoV-2 B.1.429 spike (S) protein (SARS-CoV-2)
[19] = target: SARS-CoV-2 XBB.2.3.2 spike (S) protein (SARS-CoV-2)
[20] = target: SARS-CoV-2 HV.1 spike (S) protein (SARS-CoV-2)
[21] = target: SARS-CoV-2 B.1.525 spike (S) protein (SARS-CoV-2)
[22] = target: SARS-CoV-2 XBB.1.5 spike (S) protein (SARS-CoV-2)
[23] = target: SARS-CoV-2 B.1.351 spike (S) protein (SARS-CoV-2)
[24] = target: SARS-CoV-2 B.1.427 spike (S) protein (SARS-CoV-2)
[25] = target: SARS-CoV-2 spike (S) protein, B.1.617.2 (SARS-CoV-2)
[26] = target: SARS-CoV-2 B.1.621 spike (S) protein (SARS-CoV-2)
[27] = target: SARS-CoV-2 JN.1 spike (S) protein (SARS-CoV-2)
[28] = target: SARS-CoV-2 spike (S) protein, B.1.351 (SARS-CoV-2)
[29] = target: SARS-CoV-2 BA.1 spike (S) protein (SARS-CoV-2)
[30] = target: SARS-CoV-2 P.2 spike (S) protein (SARS-CoV-2)
[31] = target: SARS-CoV-2 EG.5.1 spike (S) protein (SARS-CoV-2)
[32] = target: SARS-CoV-2 CH.1.1 spike (S) protein (SARS-CoV-2)
[33] = target: SARS-CoV-2 JD.1.1 spike (S) protein (SARS-CoV-2)
[34] = target: SARS-CoV-2 spike (S) protein, Omicron sublineage BA.4/5 (SARS-CoV-2)
[35] = target: SARS-CoV-2 spike (S) protein, Omicron sublineage XBB (SARS-CoV-2)
[36] = target: SARS-CoV-2 spike (S) protein, Omicron sublineage BA.2.75.2 (SARS-CoV-2)
[37] = target: SARS-CoV-2 Omicron sublineage CH.1.1 spike (S) protein (SARS-CoV-2)
[38] = target: SARS-CoV-2 spike (S) protein, Omicron sublineage BQ.1.1 (SARS-CoV-2)
[39] = target: SARS-CoV-2 Omicron sublineage BF.7 spike (S) protein (SARS-CoV-2)
[40] = target: SARS-CoV-2 spike (S) protein, Omicron sublineage XBB.1.5 (SARS-CoV-2)

ADG20 (antibody) was tested, and the pseudovirus neutralization IC50 [1] was > 67 nM, the pseudovirus neutralization IC80 [1] was > 67 nM and the pseudovirus neutralization IC50 [2] was > 67 nM. For the same substance, the pseudovirus neutralization IC80 [2] was > 67 nM, the pseudovirus neutralization IC50 [3] was > 67 nM and the pseudovirus neutralization IC80 [3] was > 67 nM. For the same substance, the pseudovirus neutralization IC50 [4] was > 67 nM, the pseudovirus neutralization IC80 [4] was > 67 nM and the pseudovirus neutralization IC50 [5] was > 67 nM. The pseudovirus neutralization IC80 [5] was > 67 nM.
With AZD3152 (antibody) the pseudovirus neutralization IC50 [6] was > 10 µg/mL, the pseudotyped neutralization potency IC50 [7] was > 66.7 nM and the pseudotyped neutralization potency IC80 [7] was > 66.7 nM. For the same substance, the pseudovirus neutralization IC50 [7] was > 10 µg/mL, the pseudotyped neutralization potency IC50 [8] was > 66.7 nM and the pseudotyped neutralization potency IC80 [8] was > 66.7 nM. The pseudovirus neutralization IC50 [8] was > 10 µg/mL, the pseudovirus neutralization IC50 [9] was 0.09 µg/mL and the pseudovirus neutralization IC50 [10] was 0.049 µg/mL. For the same substance, the pseudovirus neutralization IC50 [11] was > 10 µg/mL, the pseudovirus neutralization IC50 [12] was 0.093 µg/mL and the pseudotyped neutralization potency IC50 [13] was 1.8 nM. The pseudotyped neutralization potency IC80 [13] was 5.4 nM, the pseudovirus neutralization IC50 [13] was 0.053 µg/mL and the pseudovirus neutralization IC50 [14] was 0.041 µg/mL. It also gave a pseudovirus neutralization IC50 [15] of 0.047 µg/mL, a pseudovirus neutralization IC50 [16] of 0.011 µg/mL and a pseudovirus neutralization IC50 [17] of 0.03 µg/mL. The pseudovirus neutralization IC50 [18] was 0.082 µg/mL, the pseudotyped neutralization potency IC50 [19] was 0.0806 nM and the pseudotyped neutralization potency IC80 [19] was 0.488 nM. The pseudovirus neutralization IC50 [19] was 0.025 µg/mL, the pseudovirus neutralization IC50 [20] was > 10 µg/mL and the pseudovirus neutralization IC50 [21] was 0.1 µg/mL. For the same substance, the pseudovirus neutralization IC50 [22] was 0.016 µg/mL, the pseudovirus neutralization IC50 [23] was 0.024 µg/mL and the pseudovirus neutralization IC50 [24] was 0.09 µg/mL. It also gave an IC50, pseudotyped neutralization potency [25] of 0.281 nM, an IC80, pseudotyped neutralization potency [25] of 0.518 nM and a pseudovirus neutralization IC50 [26] of 0.04 µg/mL. The pseudovirus neutralization IC50 [27] was 0.766 µg/mL, the IC50, pseudotyped neutralization potency [28] was 0.023 nM and the IC80, pseudotyped neutralization potency [28] was 0.041 nM. The pseudovirus neutralization IC50 [29] was 0.012 µg/mL, the pseudovirus neutralization IC50 [30] was 0.02 µg/mL and the pseudotyped neutralization potency IC50 [31] was > 66.7 nM. For the same substance, the pseudotyped neutralization potency IC80 [31] was > 66.7 nM, the pseudovirus neutralization IC50 [31] was > 10 µg/mL and the pseudovirus neutralization IC50 [32] was 0.045 µg/mL. The pseudovirus neutralization IC50 [33] was > 10 µg/mL.
LY1404 (antibody) was tested, and the pseudotyped neutralization potency IC50 [34] was 0.01 nM, the pseudotyped neutralization potency IC80 [34] was 0.02 nM and the pseudotyped neutralization potency IC50 [35] was > 67 nM. For the same substance, the pseudotyped neutralization potency IC80 [35] was > 67 nM, the pseudotyped neutralization potency IC50 [36] was 0.04 nM and the pseudotyped neutralization potency IC80 [36] was 0.14 nM. For the same substance, the pseudotyped neutralization potency IC50 [37] was > 67 nM, the pseudotyped neutralization potency IC80 [37] was > 67 nM and the pseudotyped neutralization potency IC50 [38] was > 67 nM. The pseudotyped neutralization potency IC80 [38] was > 67 nM, the pseudotyped neutralization potency IC50 [39] was 0.02 nM and the pseudotyped neutralization potency IC80 [39] was 0.18 nM. For the same substance, the pseudotyped neutralization potency IC50 [40] was > 67 nM and the pseudotyped neutralization potency IC80 [40] was > 67 nM.
